According to US20050208585A1 (published 2005):

What was measured:
[1] = molecular target: mpl-Rse.gD chimeric receptor (human, UniProt P40238 26-491); assay: cell-based or functional assay
[2] = molecular target: T1, human c-mpl (thrombopoietin receptor) on HU-03 cells and human platelets (human, UniProt P40238 26-635); assay: competition with 100 pM 125I-TPO for binding to HU-03 cells
T1 construct: whole, on cells; also called mpl receptor; TPO receptor
T1 sequence (looked up): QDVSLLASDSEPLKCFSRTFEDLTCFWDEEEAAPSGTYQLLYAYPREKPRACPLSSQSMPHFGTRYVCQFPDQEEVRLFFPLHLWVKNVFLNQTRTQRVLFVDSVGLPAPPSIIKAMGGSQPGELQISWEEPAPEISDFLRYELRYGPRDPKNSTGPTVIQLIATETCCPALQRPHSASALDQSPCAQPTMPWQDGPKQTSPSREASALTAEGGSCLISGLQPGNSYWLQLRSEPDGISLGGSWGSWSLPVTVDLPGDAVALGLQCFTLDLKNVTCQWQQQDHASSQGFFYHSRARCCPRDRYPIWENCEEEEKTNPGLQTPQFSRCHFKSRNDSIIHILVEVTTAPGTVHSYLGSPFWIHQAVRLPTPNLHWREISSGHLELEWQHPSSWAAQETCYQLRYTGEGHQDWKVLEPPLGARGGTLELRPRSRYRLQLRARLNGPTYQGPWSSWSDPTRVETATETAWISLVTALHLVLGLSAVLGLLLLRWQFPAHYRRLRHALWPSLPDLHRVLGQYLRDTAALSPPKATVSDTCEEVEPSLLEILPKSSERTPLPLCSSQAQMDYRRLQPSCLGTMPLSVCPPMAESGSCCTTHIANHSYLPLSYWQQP

mpl-Ig = molecular target: T2, mpl-Ig (UniProt P40238 26-491); assay: TPO receptor-binding inhibition ELISA: biotinylated TPO on captured mpl-Ig
T2 construct: From conditioned media of mpl-Ig-transfected 293 cells, captured on rabbit anti-human IgG Fc; also called mpl-IgG; not shown: Ig part, captured by anti-human IgG Fc
T2 sequence (looked up): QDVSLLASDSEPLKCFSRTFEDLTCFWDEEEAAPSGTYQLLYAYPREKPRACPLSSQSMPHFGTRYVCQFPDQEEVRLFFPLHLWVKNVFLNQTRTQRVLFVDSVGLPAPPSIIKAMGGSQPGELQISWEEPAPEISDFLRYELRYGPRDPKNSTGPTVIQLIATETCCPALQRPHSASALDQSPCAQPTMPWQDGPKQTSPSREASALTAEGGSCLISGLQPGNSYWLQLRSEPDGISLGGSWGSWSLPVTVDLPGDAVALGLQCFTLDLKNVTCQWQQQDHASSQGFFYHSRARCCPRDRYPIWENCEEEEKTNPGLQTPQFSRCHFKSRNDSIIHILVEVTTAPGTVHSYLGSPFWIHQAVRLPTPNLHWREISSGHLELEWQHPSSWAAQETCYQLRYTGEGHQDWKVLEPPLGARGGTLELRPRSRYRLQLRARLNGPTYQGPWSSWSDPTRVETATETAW

[3] = molecular target: T1, human c-mpl (thrombopoietin receptor) …; assay: competition with 100 pM 125I-TPO for binding to human platelets
[4] = molecular target: T1, human c-mpl (thrombopoietin receptor) …; assay: cell-based or functional assay
[5] = molecular target: human c-mpl (thrombopoietin receptor) on HU-03 cells and human platelets (human) (UniProt P40238); assay: cell-based or functional assay
[6] = molecular target: human c-mpl (thrombopoietin receptor) on HU-03 cells and human platelets (human) (UniProt P40238); assay: competition with 100 pM 125I-TPO for binding to HU-03 cells

B1: 12D5 Fab (Fab, V domains shown)
VH: QVQLVESGGGLVKPGGSLRLSCAASGFTFSSHNMNWVRQAPGKGLEWVSSISSSSSYIYYADSVKGRFTISRDNAKNSLYLQMNSLRAEDTAVYYCARDRGSTGMDVWGRGTLVTVSS
VL: DIVMTQSPSTLSASIGDRVTITCRASEGIYHWLAWYQQKPGKAPKLLIYKASSLASGAPSRFSGSGSGTDFTLTISSLQPDDFATYYCQQYSNYPLTFGGGTELEIKR
KIRA (ED50) [1]: 4 nM
IC50 [2]: 500 nM
IC50 (mpl-Ig): 1000 nM

B2: 12D5 IgG (antibody, V domains shown)
VH: QVQLVESGGGLVKPGGSLRLSCAASGFTFSSHNMNWVRQAPGKGLEWVSSISSSSSYIYYADSVKGRFTISRDNAKNSLYLQMNSLRAEDTAVYYCARDRGSTGMDVWGRGTLVTVSS
VL: DIVMTQSPSTLSASIGDRVTITCRASEGIYHWLAWYQQKPGKAPKLLIYKASSLASGAPSRFSGSGSGTDFTLTISSLQPDDFATYYCQQYSNYPLTFGGGTELEIKR
KIRA (ED50) [1]: 3 nM
IC50 [2]: 10 nM
IC50 [3]: 500 nM
IC50 (mpl-Ig): 0.45 nM

B3: 12B5 IgG (antibody, V domains shown)
VH: QVQLVQSGGGLVRPGGSLSLSCAVSGITLRTYGMHWVRQAPGKGLEWVAGISFDGRSEYYADSVQGRFTISRDSSKNTLYLQMNSLRAEDTAVYYCARGAHYGFDIWGQGTMVTVSS
VL: DIVMTQSPSTLSASIGDRVTITCRASEGIYHWLAWYQQKPGKAPKLLIYKASSLASGAPSRFSGSGSGTDFTLTISSLQPDDFATYYCQQYSNYPLTFGGGTELEIKR
Hu3 Proliferation (ED50) [4]: 0.03 nM
IC50 [2]: 10 nM
IC50 [3]: 300 nM
IC50 (mpl-Ig): 0.152 nM

B4: 12E10 scFv (scFv)
chain: MAQVQLQQSGPGLVKPSETLSLTCTVSGDSISSYYWSWIRQPPGKGLEWIGYIYYSGSTNYNPSLKSRVTISVDTSKSQFSLKLSSVTAADTAVYYCARGRYFDVWGRGTMVTVSSGGGGSGGGGSGGGGSSYVLTQPPSVSGSPGQSITISCTGTSSDVGGYNYVSWYQQHPGKAPKLMIYEGSKRPSGVSNRFSGSKSGNTASLTISGLQAEDEADYYCSSYTTRSTRVFGGGTKLTVLGAA
Hu3 Proliferation (ED50) [4]: 0.005 nM
IC50 [2]: 5 nM
IC50 [3]: 5 nM
IC50 (mpl-Ig): 1.6 nM

B5: 12B5 Fab (Fab, from another filing)
scFv: MAQVQLVQSGGGLVRPGGSLSLSCAVSGITLRTYGMHWVRQAPGKGLEWVAGISFDGRSEYYADSVQGRFTISRDSSKNTLYLQMNSLRAEDTAVYYCARGAHYGFDIWGQGTMVTVSSGGGGTGGGGSGGGGSDIQMTQSPSTLSASIGDRVTITCRASEGIYHWLAWYQQKPGKAPKLLIYKASSLASGAPSRFSGSGSGTDFTLTISSLQPDDFATYYCQQYSNYPLTFGGGTELEIKRAA
Hu3 Proliferation (ED50) [5]: > 1000 nM
KIRA (ED50) [1]: 3 nM
IC50 [6]: 900 nM

B6: 12B5 scFv (scFv)
chain: MAQVQLVQSGGGLVRPGGSLSLSCAVSGITLRTYGMHWVRQAPGKGLEWVAGISFDGRSEYYADSVQGRFTISRDSSKNTLYLQMNSLRAEDTAVYYCARGAHYGFDIWGQGTMVTVSSGGGGTGGGGSGGGGSDIQMTQSPSTLSASIGDRVTITCRASEGIYHWLAWYQQKPGKAPKLLIYKASSLASGAPSRFSGSGSGTDFTLTISSLQPDDFATYYCQQYSNYPLTFGGGTELEIKRAA
KIRA (ED50) [1]: 1 nM
Hu3 Proliferation (ED50) [4]: 0.02 nM
IC50 [2]: 10 nM
IC50 [3]: 100 nM
IC50 (mpl-Ig): 17 nM
